Laboratory results from the supplement of paper PMC9170038.

Tested on: K4 kissing-loop RNA reporter
Experiment: apparent KD of K4 kissing-loop reporter; higher = weaker reporter binding
Conditions: Eterna round: R107
Protocol: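 RNA-MaP round R107: designed RNA switches with theophylline, tryptophan, arginine or FMN aptamers are transcribed on-chip within common flanks. They are titrated with a labelled K4 kissing-loop RNA reporter in RNA-MaP buffer (100 mM Tris pH 7.5, 80 mM KCl, 4 mM MgCl2), without ligand or with the indicated ligand. Median apparent KD per design.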

[1] = input ligand: theophylline 20 uM
[2] = input ligand: tryptophan 2.4 mM
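Note: bound reporter read as fluorescence of individual clusters on recovered sequencing chips by microscopy, with normalized cluster intensities fitted with a binding model.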

GGCGGCCGCGCGAAAGCGCGGCCGGCCGAUACCAGCGCGCCGGCGCGCCCUUGGCAGCGGCGCCGAGUGAUGUUCGGCCUGCCGU [#2 Same State - Theophylline A Attempt #12 (HarryS)]
apparent KD of K4 kissing-loop reporter (input ligand: FMN 200 uM): 144 nM
apparent KD of K4 kissing-loop reporter (input ligand: arginine 13.2 mM): 101 nM
apparent KD of K4 kissing-loop reporter (input ligand: none): 112 nM
apparent KD of K4 kissing-loop reporter [1]: 134 nM
apparent KD of K4 kissing-loop reporter [2]: 125 nM

UGGGUGUAGUGAUGUUAUAUAGAGAGUGAUACCAGUUUAGAGAAGAACCCUUGGCAGCAUAGAAGAGUAUCAUUGGAGAAGAAUG [ExTheophyl.As]
apparent KD of K4 kissing-loop reporter (input ligand: FMN 200 uM): 459 nM
apparent KD of K4 kissing-loop reporter (input ligand: arginine 13.2 mM): 348 nM
apparent KD of K4 kissing-loop reporter (input ligand: none): 422 nM
apparent KD of K4 kissing-loop reporter [1]: 378 nM
apparent KD of K4 kissing-loop reporter [2]: 339 nM

GGACGCCGGUCGGCCGCCACUCACAGCAGUGAUGUUCCUGAGAAUGUAGCGGAGUGAUGUUCCGAGAGGACCGGGACUGCAGUUU [Same State Tryptophan B GF 8]
apparent KD of K4 kissing-loop reporter (input ligand: FMN 200 uM): 799 nM
apparent KD of K4 kissing-loop reporter (input ligand: arginine 13.2 mM): 644 nM
apparent KD of K4 kissing-loop reporter (input ligand: none): 777 nM
apparent KD of K4 kissing-loop reporter [1]: 875 nM
apparent KD of K4 kissing-loop reporter [2]: 840 nM

UCCUGCAAUCGUCCACGAAAGUGGAUCGAUACCAGAGUCGAAAGACUCCCUUGGCAGCGAGUGAUGUUCGAAGCAGGUAAAUAAA
apparent KD of K4 kissing-loop reporter (input ligand: FMN 200 uM): 487 nM
apparent KD of K4 kissing-loop reporter (input ligand: arginine 13.2 mM): 387 nM
apparent KD of K4 kissing-loop reporter (input ligand: none): 466 nM
apparent KD of K4 kissing-loop reporter [1]: 548 nM
apparent KD of K4 kissing-loop reporter [2]: 391 nM

UAAUAUCCGUCGGCCGCCACUCACUAGUGAUGUUAGAGGAGUGAUGUUCCACGAGUGAUGUUCGAGAGGACCGGGACGGACGAUG [7th]
apparent KD of K4 kissing-loop reporter (input ligand: FMN 200 uM): 75.1 nM
apparent KD of K4 kissing-loop reporter (input ligand: arginine 13.2 mM): 60 nM
apparent KD of K4 kissing-loop reporter (input ligand: none): 65.3 nM
apparent KD of K4 kissing-loop reporter [1]: 56.6 nM
apparent KD of K4 kissing-loop reporter [2]: 54.9 nM

AGUAUGUAAUAUGGCAUAUUUAGAACUGAAGGAGCGCCGAAUAAGGCAGGUAGGUCGCGGUUUUAUGAGUGAUGUUCUUGUUUAA [KL-SSArg-A24]
apparent KD of K4 kissing-loop reporter (input ligand: FMN 200 uM): 156 nM
apparent KD of K4 kissing-loop reporter (input ligand: arginine 13.2 mM): 125 nM
apparent KD of K4 kissing-loop reporter (input ligand: none): 149 nM
apparent KD of K4 kissing-loop reporter [1]: 329 nM
apparent KD of K4 kissing-loop reporter [2]: 111 nM

GAAUCAUGUAGAAGGAGCGUUAGAAGUUAUAGGGAUGAGUGAUGUUUGUGUUAGUAAAUCUGACAGGUAGGUCGCUACAGAAGGA [KL-SSArg B21 #analogue]
apparent KD of K4 kissing-loop reporter (input ligand: FMN 200 uM): 712 nM
apparent KD of K4 kissing-loop reporter (input ligand: arginine 13.2 mM): 258 nM
apparent KD of K4 kissing-loop reporter (input ligand: none): 607 nM
apparent KD of K4 kissing-loop reporter [1]: 132 nM
apparent KD of K4 kissing-loop reporter [2]: 308 nM

AUUUAAUUAACUGAUACCAGACUUUUUGUUUUGAUAAUUACUAGUGAUGUUAGUGUUUCUGUCCCUUGGCAGCAGUAUCUACUUA [JR_ExcTheophyB_Sub017]
apparent KD of K4 kissing-loop reporter (input ligand: FMN 200 uM): 121 nM
apparent KD of K4 kissing-loop reporter (input ligand: arginine 13.2 mM): 177 nM
apparent KD of K4 kissing-loop reporter (input ligand: none): 122 nM
apparent KD of K4 kissing-loop reporter [1]: 209 nM
apparent KD of K4 kissing-loop reporter [2]: 106 nM

AUGGGUUGUUGAAGGAGCGCCGCCAGUGAUGUUGGGAGUUAGAUACCAGUGAUGUUGGGCCGGCAGGUAGGUCGCGGCGAUUUAU [Exclusion Arginine B GF 19]
apparent KD of K4 kissing-loop reporter (input ligand: FMN 200 uM): 347 nM
apparent KD of K4 kissing-loop reporter (input ligand: arginine 13.2 mM): 170 nM
apparent KD of K4 kissing-loop reporter (input ligand: none): 484 nM
apparent KD of K4 kissing-loop reporter [1]: 332 nM
apparent KD of K4 kissing-loop reporter [2]: 344 nM

AGGCACGAGCAAGGAUAUCGAGUAGAGUGAUGUUCUGCCUGGGUUGGCUCGGAAGGGCCUUCCCAGCGAGAAGGUGCUCGUGCCU [#2 Same State - FMN A Attempt #16 (HarryS)]
apparent KD of K4 kissing-loop reporter (input ligand: FMN 200 uM): 189 nM
apparent KD of K4 kissing-loop reporter (input ligand: arginine 13.2 mM): 637 nM
apparent KD of K4 kissing-loop reporter (input ligand: none): 590 nM
apparent KD of K4 kissing-loop reporter [1]: 674 nM
apparent KD of K4 kissing-loop reporter [2]: 493 nM

CCAUCGCUAUUCGAUACCAGUCAUUAAAUCUUUGGUUUAAUAAAGGAGUGAUGUUCCCAAGACCCUUGGCAGCGAAUAGUGAUGG [Theophylline B K4 9]
apparent KD of K4 kissing-loop reporter (input ligand: FMN 200 uM): 213 nM
apparent KD of K4 kissing-loop reporter (input ligand: arginine 13.2 mM): 183 nM
apparent KD of K4 kissing-loop reporter (input ligand: none): 198 nM
apparent KD of K4 kissing-loop reporter [1]: 166 nM
apparent KD of K4 kissing-loop reporter [2]: 207 nM

UUAGAGAUCUCAGGAUAUCAGUGAUGUUGAGAUUCAGAUCUGAGAUAGAAUUCUAUCUCAGAUCAAUGAGAAGGGAGAUCUCAUU [AK4.4 Exc FMN B]
apparent KD of K4 kissing-loop reporter (input ligand: FMN 200 uM): 463 nM
apparent KD of K4 kissing-loop reporter (input ligand: arginine 13.2 mM): 540 nM
apparent KD of K4 kissing-loop reporter (input ligand: none): 649 nM
apparent KD of K4 kissing-loop reporter [1]: 699 nM
apparent KD of K4 kissing-loop reporter [2]: 443 nM

GCCAGUGAUGUUGGCAUUUCGAGCCAUGAAGGAGCGCACGGAAGUGCAGGUAGGUCGCAUGGUACUUAGGAUAUUACCCUAAGUA [Isterare]
apparent KD of K4 kissing-loop reporter (input ligand: FMN 200 uM): 206 nM
apparent KD of K4 kissing-loop reporter (input ligand: arginine 13.2 mM): 177 nM
apparent KD of K4 kissing-loop reporter (input ligand: none): 212 nM
apparent KD of K4 kissing-loop reporter [1]: 200 nM
apparent KD of K4 kissing-loop reporter [2]: 161 nM

UCCUGCAAUCGACCACGAAAGUGGAUCGAUACCAGAGUCGAAAGACUCCCUUGGCAGCGAGUGAUGUUCGAGCAGGUAAAAUAAA [#SwitchBubble 23 #K4Late]
apparent KD of K4 kissing-loop reporter (input ligand: FMN 200 uM): 713 nM
apparent KD of K4 kissing-loop reporter (input ligand: arginine 13.2 mM): 461 nM
apparent KD of K4 kissing-loop reporter (input ligand: none): 446 nM
apparent KD of K4 kissing-loop reporter [1]: 406 nM
apparent KD of K4 kissing-loop reporter [2]: 486 nM

AAAGAGUCACUCGAAGCCAUCGAAGAUGGGCGAGGACCGGUACGGCCGCCACUCGGAGUGAUGUUCCGAAGACUGUAAAAUAAAA [MatMod 11 - Jieux - Exclusion - Tryptophan A]
apparent KD of K4 kissing-loop reporter (input ligand: FMN 200 uM): 273 nM
apparent KD of K4 kissing-loop reporter (input ligand: arginine 13.2 mM): 242 nM
apparent KD of K4 kissing-loop reporter (input ligand: none): 451 nM
apparent KD of K4 kissing-loop reporter [1]: 362 nM
apparent KD of K4 kissing-loop reporter [2]: 355 nM

GGGAGUAGUGCGGCCGCCACUGUGAAAGAAGAAGAAUAUAGUGAUGUUAUAUAGGAAAGGAAGAAUAGGACCGGGCAUUAGAUUU [SSTRyptB.K]
apparent KD of K4 kissing-loop reporter (input ligand: FMN 200 uM): 213 nM
apparent KD of K4 kissing-loop reporter (input ligand: arginine 13.2 mM): 226 nM
apparent KD of K4 kissing-loop reporter (input ligand: none): 260 nM
apparent KD of K4 kissing-loop reporter [1]: 235 nM
apparent KD of K4 kissing-loop reporter [2]: 183 nM

GGUAGCAUGGCGGCCGCCACUAUUACUGGAUCGGAAACGAUCCAGUAUUUAUGAGUGAUGUUCAUUAGGACCGGGCCAUGCUACC
apparent KD of K4 kissing-loop reporter (input ligand: FMN 200 uM): 342 nM
apparent KD of K4 kissing-loop reporter (input ligand: arginine 13.2 mM): 301 nM
apparent KD of K4 kissing-loop reporter (input ligand: none): 304 nM
apparent KD of K4 kissing-loop reporter [1]: 305 nM
apparent KD of K4 kissing-loop reporter [2]: 208 nM

GAGCCAGAGGUUGCUGCGGGUUUCAGAGAUACCAGCCGUAUUGUAGGCCCUUGGCAGCUCGAGUGAUGUUCGAGCCGCCUCUGGC [Eredorxela]
apparent KD of K4 kissing-loop reporter (input ligand: FMN 200 uM): 111 nM
apparent KD of K4 kissing-loop reporter (input ligand: arginine 13.2 mM): 102 nM
apparent KD of K4 kissing-loop reporter (input ligand: none): 120 nM
apparent KD of K4 kissing-loop reporter [1]: 129 nM
apparent KD of K4 kissing-loop reporter [2]: 109 nM

GCAUCCUAGUCGGCCGCCACUGACAUGAGUGAUGUUCAUGUUCGUCAGUGAUGUUGACGUUGUUACAGGACCGGGACUAGGAUGC [KL-SSTryp-B8 Brourdwalk4 #Double KL]
apparent KD of K4 kissing-loop reporter (input ligand: FMN 200 uM): 169 nM
apparent KD of K4 kissing-loop reporter (input ligand: arginine 13.2 mM): 143 nM
apparent KD of K4 kissing-loop reporter (input ligand: none): 165 nM
apparent KD of K4 kissing-loop reporter [1]: 150 nM
apparent KD of K4 kissing-loop reporter [2]: 119 nM

CGACGCCGGUCGGCCGCCACUCACAGCAGCCAGUGAUGUUGGAUUGUAGCGGAGUGAUGUUUCGCGAGGACCGGGACUGCAGUCG [Same State Tryptophan B GF 12]
apparent KD of K4 kissing-loop reporter (input ligand: FMN 200 uM): 167 nM
apparent KD of K4 kissing-loop reporter (input ligand: arginine 13.2 mM): 131 nM
apparent KD of K4 kissing-loop reporter (input ligand: none): 129 nM
apparent KD of K4 kissing-loop reporter [1]: 130 nM
apparent KD of K4 kissing-loop reporter [2]: 143 nM

UUGAGCCGGACUUAAGUCCGGCUCUGCGAGCGAGGACCGGUACGGCCGCCACUCGGUGCAGUGAUGUUGCAUGGCCGCAAGGCCG [#2 Exclusion - Tryptophan A Attempt #11 (HarryS)]
apparent KD of K4 kissing-loop reporter (input ligand: FMN 200 uM): 269 nM
apparent KD of K4 kissing-loop reporter (input ligand: arginine 13.2 mM): 209 nM
apparent KD of K4 kissing-loop reporter (input ligand: none): 298 nM
apparent KD of K4 kissing-loop reporter [1]: 231 nM
apparent KD of K4 kissing-loop reporter [2]: 296 nM
